Test results from patent US20050289668A1, “Plants with increased levels of one or more amino acids” (priority 2003, published 2005).
Numbering of substitutions follows the chain as printed. Names may count otherwise.

Assays:
soybean seeds = test: Free amino acid concentration in seeds of soybean transformed with threonine deaminase constructs (TCA extraction, OPA HPLC, fluorescence); format: in vivo; conditions: transformed soybean plants
Experimental: The concentration of free isoleucine in seeds was determined by crushing approximately 50 mg of seed, placing the crushed material in a centrifuge vial, and then weighing. One mL of 5% trichloroacetic acid was added to each sample vial. The samples were mixed, using a vortex mixer, at room temperature for 15 minutes. The samples were then spun in a microcentrifuge for 15 minutes at 14,000 rpm. Some of the supernatant was then removed, placed in a HPLC vial and sealed. Samples were kept at 4° C. prior to analysis. A single seed analysis was performed on all R1 soybean seed, with 5 seeds per event, and one injection per seed. For subsequent generations representing the R2 and R3 seeds, a bulk assay having 10 seeds for each event, and one injection per event was used. The samples were analyzed using the Agilent Technologies 1100 series HPLC system. A 0.5 μL aliquot of the sample was derivatized with 2.5 μL of OPA (o-phthalaldehyde and 3-mercaptopropionic acid in borate buffer, Hewlett-Packard PN 5061-3335) reagent in 10 μl of 0.4 N borate buffer pH 10.2 (Hewlett-Packard, PN 5061-3339). The derivative was injected onto an Agilent Technologies Eclipse® XDB-C18 3.5 μm, 4.6×75 mm at 2 mL/min flow rate. […] Isoleucine concentrations were measured using fluorescence detection (excitation at 340 nm, emission at 450 nm) and values were calculated from a standard curve ranging from 10 to 800 μg/mL. […]

[1] = target: T1, Arabidopsis threonine deaminase (Arabidopsis thaliana, UniProt Q9ZSS6); test: Kinetics data for Arabidopsis threonine deaminases (comparison in Table 4, FIG. 6); format: biochemical; conditions: initial velocity vs threonine concentration
T1 sequence (Q9ZSS6 92-592): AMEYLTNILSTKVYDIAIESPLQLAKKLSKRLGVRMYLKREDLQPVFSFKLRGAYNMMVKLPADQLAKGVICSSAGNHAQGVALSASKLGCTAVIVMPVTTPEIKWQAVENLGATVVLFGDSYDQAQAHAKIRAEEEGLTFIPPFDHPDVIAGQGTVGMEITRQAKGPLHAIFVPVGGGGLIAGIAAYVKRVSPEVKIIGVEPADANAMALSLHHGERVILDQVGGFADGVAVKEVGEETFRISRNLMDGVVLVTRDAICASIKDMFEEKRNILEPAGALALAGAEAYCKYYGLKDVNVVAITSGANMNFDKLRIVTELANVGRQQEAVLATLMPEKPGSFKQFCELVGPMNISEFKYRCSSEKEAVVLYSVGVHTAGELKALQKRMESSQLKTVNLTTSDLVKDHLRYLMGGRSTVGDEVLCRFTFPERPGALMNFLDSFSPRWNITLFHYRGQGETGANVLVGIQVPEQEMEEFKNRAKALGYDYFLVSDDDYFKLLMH

[2] = system: E. coli threonine deaminase; test: Steady state kinetic analysis of E. coli ilvA threonine deaminase variants, continuous assay of α-ketobutyrate at 230 nm, with and without L-isoleucine; format: biochemical; conditions: for Km: E. coli ilvA TD expressed in E. coli, crude extract, pH 7.5, read-out: Km^Thr; for IC50: inhibition of TD activity by L-isoleucine
Experimental: Before conducting further transformation experiments using the isolated ilvA alleles in transgenic plants, each allele was over-expressed in E. coli to determine its kinetic parameters. Kinetics data on threonine deaminases containing various mutations, and a comparison to data available for threonine deaminases from Arabidopsis, are provided in Table 4. The E. coli ilvA481 variants were subcloned into pSE380 (Invitrogen, Carlsbad, Calif.) and expression was induced with 0.2 mM IPTG at 37° C. for 3 hours. Expression of the E. coli alleles was high and fairly consistent as visualized by SDS-PAGE.
The effects of amino acid substitutions at Leu481 in ilvA were assessed by steady state kinetic analysis in the presence and absence of L-isoleucine. Threonine deaminase polypeptides for use in in vitro kinetics studies were extracted from E. coli cells in assay buffer containing 50 mM potassium phosphate (pH7.5), 1 mM dithiothreitol (DTT), and 0.5 mM ethylenediamine-tetraacetate. A continuous assay method was employed to monitor the formation of α-ketobutyrate directly at 230 nm (ε230 (pH7.5)=540 M^−1cm^−1 whereas threonine absorption was negligible (˜1%)). The assay was initiated by adding 20 μl of crude extract diluted 1:20 v/v to the assay vessel containing L-threonine (between 2.5 mM and 50 mM) in a final volume of 1 mL. For L-isoleucine inhibition, L-isoleucine was added between 0 mM and 20 mM. The kinetic parameters were determined by fitting the data points to the equations using GraFit 4.0 software (Erithacus Software, Surrey, UK). For comparison, the kcat values of L481 alleles were normalized to the kcat value for the wild type IlvA enzyme. Enzymes represented in FIG. 7 are: wild type E. coli threonine deaminase (circles), L481Y TD enzyme (diamonds), L481F TD enzyme (triangles), and the L481T TD enzyme (squares). Table 4 also summarizes the kinetic parameters of the variant threonine deaminase enzymes produced by the various E. coli ilvA alleles.

In the case of “ilvA219: mutagenized E. coli threonine deaminase gene containing the L447F mutation”, the “free isoleucine concentration in the seed” value (soybean seeds) is reported as greater than 600 µg/g.

With “ilvA466: mutagenized E. coli threonine deaminase gene containing the L481F mutation” the “free isoleucine concentration in the seed” value (soybean seeds) was greater than 1300 µg/g.

B1: Wild type Arabidopsis: wild type Arabidopsis threonine deaminase polypeptide (protein, UniProt Q9ZSS6 92-592, looked up)
Threonine dehydratase …: T1 sequence (Q9ZSS6 92-592)
For B1, the “cooperativity in substrate binding” value [1] was “independent activity”.

B2: L481K: E. coli threonine deaminase, Leu at position 481 replaced with Lys (protein, listed as Escherichia coli)
chain: MADSQPLSGAPEGAEYLRAVLRAPVYEAAQVTPLQKMEKLSSRLDNVILVKREDRQPVHSFKLRGAYAMMAGLTEEQKAHGVITASAGNHAQGVAFSSARLGVKALIVMPTATADIKVDRLRGFGGEVLLHGANFDEAKRKAIELSQQQGFTWVPPFDHPMVIAGQGTLALELLQQDAHLDRVFVPVGGGGLAACVAVLIKQLMPQIKVIAVEAEDSACLKAALDAGHPVDLPRVGLFAEGVAVKRIGDETFRLCQEYLDDIITVDSDAICAAMKDLFEDVRAVAEPSGALALAGMKKYIALHNIRGERLAHILSGANVNFHGLRYVSERCELVEQREALLAVTIPEEKGSFLKFCQLLGGRSVTEFNYRFADAKNACIFVGVRLSRGLEERKEILQMLNDGGYSVVDLSDDEMAKLHVRYMVGGRPSHPLQERLYSFEFPESPGALLRFLNTLGTYWNISLFHYRSHGTDYGRVLAAFEKGDHEPDFETRLNELGYDCHDETNNPAFRFFLAG
In the case of B2, the enzyme activity ([2]; expressed in E. coli) is reported as “poor enzyme activity”.

B3: L447F (ilvA219): E. coli threonine deaminase, Leu at position 447 replaced with Phe (protein, listed as Escherichia coli)
chain: B2 chain with L447F, K481L
With B3 the “cooperativity in substrate binding” value ([2]; initial velocity vs threonine concentration) was “negative cooperativity”.

B4: L481V: E. coli threonine deaminase, Leu at position 481 replaced with Val (protein, listed as Escherichia coli)
chain: B2 chain with K481V
Work on B4 yielded a Km [2] of 7.1 mM and an IC50 [2] of 97 µM.

B5: L481M: E. coli threonine deaminase, Leu at position 481 replaced with Met (protein, listed as Escherichia coli)
chain: B2 chain with K481M
B5 showed a Km [2] of 6.4 mM and an IC50 [2] of 100 µM.
